Reference: patent US20240270846A1 (published 2024)
Changes are numbered by the printed parent chain.

T1: cynomolgus monkey CD137 (cynomolgus monkey, UniProt Q07011 24-186 (human entry), limits assumed)
T1 construct: Soluble analyte in the Biacore assay; also called cyno CD137
T1 chain: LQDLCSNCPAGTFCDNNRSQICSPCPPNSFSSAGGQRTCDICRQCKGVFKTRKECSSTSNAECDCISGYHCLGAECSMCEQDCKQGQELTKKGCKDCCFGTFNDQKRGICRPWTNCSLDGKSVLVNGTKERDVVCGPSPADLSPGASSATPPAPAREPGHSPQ

B1: dBBDu139 (antibody, human IgG1, V domains shown)
VH: QVQLVESGGGLVQPGRSLRLSCAASGFTFSNAWMHWVRQAPGKGLEWVAQIKDRGNAYNAYYAESVKGRFTISRDDSKNSIYLQMNSLKTEDTAVYYCRFVHYRHPLLHIQYGVDAWGQGTTVTVSS
VL: DIVMTQSPLSLPVTPGEPASISCRSSQSLVHSNRNTYLHWYQQKPGQAPRLLIYKVSNRFSGVPDRFSGSGSGTDFTLKISRVEAEDVGVYYCGQGTQVPYTFGQGTKLEIK
notes: IgG: VH joined to human IgG1 CH1-Fc, GLS3000 as light chain
B2: dBBDu197 (antibody, human IgG1, V domains shown)
VH: QVQLVESGGGLVQPGRSLRLSCAASGFTFSNAWMHWVRQAPGKGLEWVAQIKDRSNAYAAYYAPSVKGRFTISRDDSKNSIYLQMNSLKTEDTAVYYCHYVHYASASTVLPAFGVDAWGQGTTVTVSS
VL: B1 VL
notes: as for B1
B3: dBBDu167 (antibody, human IgG1, V domains shown)
VH: B2 VH with R54K, S55G, A57L, S107G, T108G, V109G, A112G
VL: B1 VL
notes: as for B1
B4: dBBDu126 (antibody, human IgG1, V domains shown)
VH: QVQLVESGGGLVQPGRSLRLSCAASGFTFSIAWMHWVRQAPGKGLEWVAQIKDRVNAYEAYYAPSVKGRFTISRDDSKNSIYLQMNSLKTEDTAVYYCRYVHYASYYDLLGYGGVDAWGQGTTVTVSS
VL: B1 VL
notes: IgG: VH joined to human IgG1 CH1-Fc, GLS3000 as light chain; also called DADU01_3_#001; DADU01_3 #001
B5: dBBDu127 (antibody, human IgG1, V domains shown)
VH: B2 VH with S55G, N56Q, A57Q, A59N, T108S, A112G, F113Y
VL: B1 VL
notes: IgG: VH joined to human IgG1 CH1-Fc, GLS3000 as light chain; also called DXDU01_3_#051; DXDU01_3 #051
B6: dBBDu122 (antibody, human IgG1, V domains shown)
VH: B2 VH with N56Q, A57L, P111G, F113Y
VL: B1 VL
notes: IgG: VH joined to human IgG1 CH1-Fc, GLS3000 as light chain; also called DXDU01_3_#072; DXDU01_3 #072
B7: dBBDu173 (antibody, human IgG1, V domains shown)
VH: B2 VH with R54K, S55G, A57L, S107G, T108G, V109G, P111S, F113Y
VL: B1 VL
notes: as for B1
B8: dBBDu124 (antibody, human IgG1, V domains shown)
VH: B2 VH with R54K, S55Q, A57L, A59N, P64E
VL: B1 VL
notes: IgG: VH joined to human IgG1 CH1-Fc, GLS3000 as light chain; also called DADU01_3_#002; DADU01_3 #002
B9: dBBDu123 (antibody, human IgG1, V domains shown)
VH: B2 VH with S55A, A57S, A59N, A104S, S105A, V109L, A112S
VL: B1 VL
notes: IgG: VH joined to human IgG1 CH1-Fc, GLS3000 as light chain; also called DADU01_3_#018; DADU01_3 #018
B10: dBBDu121 (antibody, human IgG1, V domains shown)
VH: B2 VH with R54K, S55G, S107A, T108G, V109G, A112G
VL: B1 VL
notes: IgG: VH joined to human IgG1 CH1-Fc, GLS3000 as light chain; also called DXDU01_3_#094; DXDU01_3 #094
B11: dBBDu_186 / dBBDu_L098 (antibody, human IgG1, V domains shown)
VH: B2 VH with A57Q, A60T, S105Q
VL: DIVMTQSPLSLPVTPGEPASISCAASEELVHINRYIFLHWYQQKPGQAPRLLIYKVSNRFIGVPDRFSGSGSGTDFTLKISRVEAEDVGVYYCAQGSQVPFTFGQGTKLEIK
notes: Tested as IgG (human IgG1 constant region, kappa light chain); also called dBBDu186/L098
B12: dBBDu_186 / dBBDu_L106 (antibody, human IgG1, V domains shown)
VH: B2 VH with A57Q, A60T, S105Q
VL: B11 VL with A24S, A25T, V30L, Y35F, S57A, I61M
notes: Tested as IgG (human IgG1 constant region, kappa light chain); also called dBBDu186/L106
B13: dBBDu_186 / dBBDu_L100 (antibody, human IgG1, V domains shown)
VH: B2 VH with A57Q, A60T, S105Q
VL: B11 VL with A24S, S57Y, I61M, A94G, Q98S
notes: Tested as IgG (human IgG1 constant region, kappa light chain); also called dBBDu186/L100
B14: dBBDu_189 / dBBDu_L119 (antibody, human IgG1, V domains shown)
VH: B2 VH with V48I, A57Q, A60T, S105Q, T108S, V109L, A112S
VL: B11 VL with A24T, E27Q, Y35F
notes: Tested as IgG (human IgG1 constant region, kappa light chain); also called dBBDu189/L119
B15: dBBDu_167 / dBBDu.L094 (antibody, human IgG1, V domains shown)
VH: B2 VH with R54K, S55G, A57L, S107G, T108G, V109G, A112G
VL: B11 VL with A24Y, V30L, Y35H, F37Y, S57Y, I61N, Q98S
notes: Tested as IgG (human IgG1 constant region, kappa light chain); also called dBBDu167/L094; dBBDu_167/L094
B16: dBBDu_193 / dBBDu.L127 (antibody, human IgG1, V domains shown)
VH: B2 VH with A57Q, A60T, A104S, S105A, V109L, A112S
VL: B11 VL with A24R, V30L, Y35H, S57Y, I61T, S97T, Q98S
notes: Tested as IgG (human IgG1 constant region, kappa light chain); also called dBBDu193/L127; dBBDu_193/L127
B17: dBBDu_193 / dBBDu.L132 (antibody, human IgG1, V domains shown)
VH: B2 VH with A57Q, A60T, A104S, S105A, V109L, A112S
VL: B11 VL with A24Q, A25T, Y35F, I61S, S97T, Q98S
notes: Tested as IgG (human IgG1 constant region, kappa light chain); also called dBBDu193/L132; dBBDu_193/L132
B18: dBBDu_186 / dBBDu_L108 (antibody, human IgG1, V domains shown)
VH: B2 VH with A57Q, A60T, S105Q
VL: B11 VL with A24R, A25T, V30L, Y35F, I36T, I61M, Q98A
notes: Tested as IgG (human IgG1 constant region, kappa light chain); also called dBBDu186/L108
B19: dBBDu_189 / dBBDu_L126 (antibody, human IgG1, V domains shown)
VH: B2 VH with V48I, A57Q, A60T, S105Q, T108S, V109L, A112S
VL: B11 VL with A24R, A25T, V30L, S57Q, I61S, Q98A
notes: Tested as IgG (human IgG1 constant region, kappa light chain); also called dBBDu189/L126

Target: T2, biotin-labeled human CD137 fused to human IgG1 Fc fragment (human, biotin-labeled)
T2 construct: Immobilised on streptavidin beads through biotin; also called human CD137-Fc; biotin-human CD137-Fc
Experiment: competitive bead ELISA, IgG on biotin-human CD137-Fc, competitor free CD3 epsilon peptide 125 pmol/well
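Throughout, for ELISA signal, free CD3e 125 pmol/well: bead ELISA on streptavidin-coated magnetic beads, with the signal read as well fluorescence 2 min after APS-5 addition.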

ELISA signal, free CD3e 125 pmol/well | Binder
1920 | B1
2110 | B2
1940 | B3
2610 | B4
2200 | B5
1880 | B6
2040 | B7
2120 | B8
1840 | B9
1830 | B10

Target: T2, biotin-labeled human CD137 fused to …
Experiment: competitive bead ELISA, decrease of signal on biotin-human CD137-Fc with 125 pmol/well free CD3 epsilon peptide against 0

Signal decrease [%] | Binder
79.6 | B1
96.1 | B2
92.5 | B3
97.8 | B4
32 | B5
30.2 | B6
68.8 | B7
68 | B8
33 | B9
49.4 | B10

Target: T1, cynomolgus monkey CD137
Experiment: SPR Biacore T200, IgG captured on protein A, antigen as analyte, 25 C;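 note: antigens flowed over a CM3 chip for 120 s association, KD derived from ka and kd, running buffer (ACES, NaCl, Tween20, pH 7.4) served as blank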

Kd [µM] | koff [s⁻¹] | kon [M⁻¹ s⁻¹] | Binder
134 | 0.00119 |  | B11
61.3 | 0.00126 |  | B12
70.4 | 0.00208 |  | B13
35.7 | 0.00122 |  | B14
6.92 | 0.0748 | 10800 | B15
28.1 | 0.00316 | 112 | B16
757 | 0.0061 |  | B17
16.1 | 0.00361 | 225 | B18
3.06 | 0.00247 | 807 | B19

Target: T3, human CD137 (human, UniProt Q07011 24-186)
T3 construct: Soluble analyte in the Biacore assay; also called 4-1BB; hCD137
Experiment: as above

Kd [µM] | koff [s⁻¹] | kon [M⁻¹ s⁻¹] | Binder
2.31 | 0.000534 | 231 | B11
3.44 | 0.000447 | 130 | B12
1.91 | 0.000746 | 391 | B13
2.71 | 0.000402 | 148 | B14
8.43 | 0.0102 | 1210 | B15
3.3 | 0.00145 | 440 | B16
4.48 | 0.00211 | 471 | B17
2.41 | 0.00081 | 335 | B18
0.513 | 0.000688 | 1340 | B19

Target: T4, human CD3ed (human, UniProt P07766 23-126; P04234 22-105, limits assumed)
T4 construct: The construct injected as 'human CD3ed' in the Biacore assay is not defined; also called human CD3 epsilon/delta heterodimer
Experiment: as above

Kd [µM] | koff [s⁻¹] | kon [M⁻¹ s⁻¹] | Binder
1.88 | 0.0209 | 11100 | B11
3.09 | 0.0318 | 10300 | B12
3.36 | 0.0546 | 16200 | B13
2.06 | 0.0258 | 12500 | B14
0.349 | 0.021 | 60200 | B15
1.51 | 0.0191 | 12600 | B16
2.03 | 0.0201 | 9890 | B17
3.01 | 0.0408 | 13600 | B18
2.57 | 0.0281 | 10900 | B19

Target: T2, biotin-labeled human CD137 fused to …
Experiment: bead ELISA, IgG on biotin-human CD137-Fc on streptavidin beads, no free CD3e

ELISA signal, free CD3e 0 pmol/well | Binder
9440 | B1
54400 | B2
25700 | B3
116000 | B4
3230 | B5
2700 | B6
6540 | B7
6620 | B8
2750 | B9
3610 | B10
